Results reported in patent US12534748B2, “Engineered beta-subunit of tryptophan synthase for production of non-canonical amino acids” (California Institute of Technology, priority 2015, dated 2026).

Assays:
[1] = substrate: c1ccc2[nH]ccc2c1; assay: Tryptophan formation from L-serine and indole, kinetics of wild-type AfTrpB; format: biochemical, Archaeoglobus fulgidus; conditions: other: 60° C., pH 8.0
Experimental: Kinetics and UV-Vis Spectroscopy. Data were collected between 550 and 250 nm on a UV1800 Shimadzu spectrophotometer (Shimadzu) using 0.25-20 μM of enzyme in 200 mM potassium phosphate (pH 8.0) in a quartz cuvette. […] PfTrpB activity (kcat) was measured by monitoring tryptophan formation at 290 nm using Δe290=1.89 mM^−1·cm^−1.
(§1) Cloning, expression, and purification of the different orthologs. The genes encoding AfTrpB (UNIPROT ID O28672), TmTrpB (UNIPROT ID P50909) and EcTrpB (UNIPROT ID P0A879) were obtained from IDT and cloned into pET22(b)+ using Gibson Assembly. Protein expression was carried out in E. coli BL21 E. cloni Express cells (Lucigen) by inoculating 10-mL Terrific Broth (with 100 μg/mL ampicillin (TBamp)) with a single colony and incubated over night at 37° C. and 250 rpm. These overnight cultures were used to scale up to 500-mL TBamp expression cultures, which were grown by shaking at 250 rpm and 37° C. for ˜3 h or until an OD600 of 0.8 was reached. […]
The three TrpB homologs and their corresponding 0B2 variants were expressed and purified, and then their kinetic properties (kcat and KM of indole) were measured. […] The UV-vis spectra of the enzymes was recorded before and after adding L-serine, relying on the diagnostic spectrum of the PLP cofactor to report the steady state population of the catalytic intermediates.

[2] = substrate: c1ccc2[nH]ccc2c1; assay: Tryptophan formation from L-serine and indole, kinetics of TmTrpB^T292S; format: biochemical, Thermotoga maritima; conditions: other: 75° C., pH 8.0
Experimental: (§2) Kinetics and UV-Vis Spectroscopy. Data were collected between 550 and 250 nm on a UV1800 Shimadzu spectrophotometer (Shimadzu) using 0.25-20 μM of enzyme in 200 mM potassium phosphate (pH 8.0) in a quartz cuvette. Samples were incubated at 75° C. for >3 min to ensure a stable temperature was reached. PfTrpB activity (kcat) was measured by monitoring tryptophan formation at 290 nm using Δe290=1.89 mM^−1·cm^−1.
as §1
The next homolog, TmTrpB, was examined. […] The variants without the T292S mutation lacked this probative absorbance peak, but the decrease at 428 nm and concomitant increase at 350 nm are consistent with a similar, though less pronounced activation.

[3] = substrate: c1ccc2[nH]ccc2c1; assay: Tryptophan formation from L-serine and indole, kinetics of wild-type PfTrpB; format: biochemical, Pyrococcus furiosus; conditions: other: 75° C., pH 8.0
Experimental: (§3) Cloning, Expression, and Purification of PfTrpA and PfTrpB. The genes encoding PfTrpB (UNIPROT ID Q8U093) and PfTrpA (UNIPROT ID Q8U094) were obtained as gBlocks and cloned into pET22(b)+ for expression in E. coli BL21 E. cloni EXPRESS cells (Lucigen). Heterologous protein expression of PfTrpA and PfTrpB was performed in Terrific Broth with 100 μg/mL ampicillin (TBamp) and induced with 500 mM IPTG (final concentration 1 mM). PfTrpB was purified via a HisTrap HP column. PfTrpA was purified via a Q HP HiTrap column (flow-through), followed by ammonium sulfate precipitation, and hydrophobic interaction chromatography on a phenyl Sepharose HP HiTrap column (FIG. 3).
as §2
(§4) Selection of the Parent Enzyme, TrpB, from Pyrococcus furiosus. […]

[4] = substrate: N[C@@H](CO)C(=O)O; assay: as above; format: biochemical, Pyrococcus furiosus; conditions: other: 75° C., pH 8.0
Experimental: as §3, §2, §4

[5] = substrate: c1ccc2[nH]ccc2c1; assay: purified protein, by the assay type; conditions: other: 75° C., pH 8.0
[6] = substrate: N[C@@H](CO)C(=O)O; assay: purified protein, by the assay type; conditions: other: 75° C., pH 8.0
[7] = substrate: N[C@@H](CO)C(=O)O; assay: Tryptophan formation from L-serine and indole, kinetics of PfTrpS complex; format: biochemical, Pyrococcus furiosus; conditions: other: 75° C., pH 8.0
[8] = substrate: N[C@@H](CO)C(=O)O; assay: Tryptophan formation from L-serine and indole, kinetics of PfTrpB^2G9; format: biochemical, Pyrococcus furiosus; conditions: other: 75° C., pH 8.0
[9] = substrate: N[C@@H](CO)C(=O)O; assay: Tryptophan formation from L-serine and indole, kinetics of PfTrpB^4D11; format: biochemical, Pyrococcus furiosus; conditions: other: 75° C., pH 8.0

B1: Archaeoglobus fulgidus tryptophan synthase beta-subunit AfTrpB, wild type, SEQ ID NO: 4 (Archaeoglobus fulgidus DSM 4304) (protein)
chain: MRCWLENLSGGRKMKFGEFGGRFVPEVLIPPLEELEKAYDRFKDDEEFKARLEYYLKSYAGRPTPLYFAENLSRELGVKIYLKREDLLHGGAHKINNTIGQALLAKFMGKKRVIAETGAGQHGVATAMAAALLGLEAEIYMGAEDYERQKMNVFRMELLGAKVTAVESGSRTLKDAINEALRDWVESFEHTHYLIGSVVGPHPFPTIVRDFQAVIGKEARRQIIEAEGGMPDAIIACVGGGSNAMGIFHPFLNDDVRLIGVEAGGEGIESGRHSASLTAGSKGVLHGMLSYFLQDEEGMMLDTHSVSAGLDYPGVGPEHAYLKETGRCEYVTVNDEEALRAFKTLSKLEGIIPALESAHAIAYAMKMAEEMQRDDVLVVNLSGRGDKDMDIVRRRLALEHHHHHH
[1]
  Km: 12 µM

B2: Thermotoga maritima TrpB variant TmTrpB^T292S, SEQ ID NO: 26 (Thermotoga maritima MSB8; T292S) (protein)
chain: MKGYFGPYGGQYVPEILMPALEELEAAYEEIMKDESFWKEFNDLLRDYAGRPTPLYFARRLSEKYGARIYLKREDLLHTGAHKINNAIGQVLLAKKMGKTRIIAETGAGQHGVATATAAALFGMECVIYMGEEDTIRQKPNVERMKLLGAKVVPVKSGSRTLKDAINEALRDWITNLQTTYYVIGSVVGPHPYPIIVRNFQKVIGEETKKQILEKEGRLPDYIVACVGGGSNAAGIFYPFIDSGVKLIGVEAGGEGLETGKHAASLLKGKIGYLHGSKTFVLQDDWGQVQVSHSVSAGLDYSGVGPEHAYWRETGKVLYDAVTDEEALDAFIELSRLEGIIPALESSHALAYLKKINIKGKVVVVNLSGRGDKDLESVLNHPYVRERIRLEHHHHHH
[2]
  Km: 25 µM

B3: Pyrococcus furiosus tryptophan synthase beta-subunit PfTrpB, wild type, SEQ ID NO: 2 (Pyrococcus furiosus DSM 3638) (protein)
chain: MWFGEFGGQYVPETLIEPLKELEKAYKRFKDDEEFNRQLNYYLKTWAGRPTPLYYAKRLTEKIGGAKIYLKREDLVHGGAHKTNNAIGQALLAKFMGKTRLIAETGAGQHGVATAMAGALLGMKVDIYMGAEDVERQKMNVFRMKLLGANVIPVNSGSRTLKDAINEALRDWVATFEYTHYLIGSVVGPHPYPTIVRDFQSVIGREAKAQILEAEGQLPDVIVACVGGGSNAMGIFYPFVNDKKVKLVGVEAGGKGLESGKHSASLNAGQVGVFHGMLSYFLQDEEGQIKPTHSIAPGLDYPGVGPEHAYLKKIQRAEYVTVTDEEALKAFHELSRTEGIIPALESAHAVAYAMKLAKEMSRDEIIIVNLSGRGDKDLDIVLKVSGNVLEHHHHHH
[3]
  Km: 77 ± 12 µM
[4]
  Km: 1200 ± 100 µM

B4: Pyrococcus furiosus TrpB variant PfTrpB^0B2 (P12L, E17G, I68V, T292S, F274S, T321A), SEQ ID NO: 12 (Pyrococcus furiosus DSM 3638; … (protein)
chain: MWFGEFGGQYVLETLIGPLKELEKAYKRFKDDEEFNRQLNYYLKTWAGRPTPLYYAKRLTEKIGGAKVYLKREDLVHGGAHKTNNAIGQALLAKFMGKTRLIAETGAGQHGVATAMAGALLGMKVDIYMGAEDVERQKMNVFRMKLLGANVIPVNSGSRTLKDAINEALRDWVATFEYTHYLIGSVVGPHPYPTIVRDFQSVIGREAKAQILEAEGQLPDVIVACVGGGSNAMGIFYPFVNDKKVKLVGVEAGGKGLESGKHSASLNAGQVGVSHGMLSYFLQDEEGQIKPSHSIAPGLDYPGVGPEHAYLKKIQRAEYVAVTDEEALKAFHELSRTEGIIPALESAHAVAYAMKLAKEMSRDEIIIVNLSGRGDKDLDIVLKVSGNVLEHHHHHH
[5]
  Km: 8.7 µM
[6]
  Km: 700 µM

B5: Pyrococcus furiosus tryptophan synthase complex PfTrpS (PfTrpA + PfTrpB) (Pyrococcus furiosus DSM 3638) (protein)
chain: MWFGEFGGQYVPETLIEPLKELEKAYKRFKDDEEFNRQLNYYLKTWAGRPTPLYYAKRLTEKIGGAKIYLKREDLVHGGAHKTNNAIGQALLAKFMGKTRLIAETGAGQHGVATAMAGALLGMKVDIYMGAEDVERQKMNVFRMKLLGANVIPVNSGSRTLKDAINEALRDWVATFEYTHYLIGSVVGPHPYPTIVRDFQSVIGREAKAQILEAEGQLPDVIVACVGGGSNAMGIFYPFVNDKKVKLVGVEAGGKGLESGKHSASLNAGQVGVFHGMLSYFLQDEEGQIKPTHSIAPGLDYPGVGPEHAYLKKIQRAEYVTVTDEEALKAFHELSRTEGIIPALESAHAVAYAMKLAKEMSRDEIIIVNLSGRGDKDLDIVLKVSGNVLEHHHHHH
[7]
  Km: 600 µM

B6: Pyrococcus furiosus TrpB variant PfTrpB^2G9 (T292S), SEQ ID NO: 10 (Pyrococcus furiosus DSM 3638; T292S) (protein)
chain: MWFGEFGGQYVPETLIEPLKELEKAYKRFKDDEEFNRQLNYYLKTWAGRPTPLYYAKRLTEKIGGAKIYLKREDLVHGGAHKTNNAIGQALLAKFMGKTRLIAETGAGQHGVATAMAGALLGMKVDIYMGAEDVERQKMNVFRMKLLGANVIPVNSGSRTLKDAINEALRDWVATFEYTHYLIGSVVGPHPYPTIVRDFQSVIGREAKAQILEAEGQLPDVIVACVGGGSNAMGIFYPFVNDKKVKLVGVEAGGKGLESGKHSASLNAGQVGVFHGMLSYFLQDEEGQIKPSHSIAPGLDYPGVGPEHAYLKKIQRAEYVTVTDEEALKAFHELSRTEGIIPALESAHAVAYAMKLAKEMSRDEIIIVNLSGRGDKDLDIVLKVSGNVLEHHHHHH
[8]
  Km: 840 µM

B7: Pyrococcus furiosus TrpB variant PfTrpB^4D11 (E17G, I68V, T292S, F274S, T321A), SEQ ID NO: 16 (Pyrococcus furiosus DSM 3638; E17G/F274S/I68V/T292S/T321A) (protein)
chain: MWFGEFGGQYVPETLIGPLKELEKAYKRFKDDEEFNRQLNYYLKTWAGRPTPLYYAKRLTEKIGGAKVYLKREDLVHGGAHKTNNAIGQALLAKFMGKTRLIAETGAGQHGVATAMAGALLGMKVDIYMGAEDVERQKMNVFRMKLLGANVIPVNSGSRTLKDAINEALRDWVATFEYTHYLIGSVVGPHPYPTIVRDFQSVIGREAKAQILEAEGQLPDVIVACVGGGSNAMGIFYPFVNDKKVKLVGVEAGGKGLESGKHSASLNAGQVGVSHGMLSYFLQDEEGQIKPSHSIAPGLDYPGVGPEHAYLKKIQRAEYVAVTDEEALKAFHELSRTEGIIPALESAHAVAYAMKLAKEMSRDEIIIVNLSGRGDKDLDIVLKVSGNVLEHHHHHH
[9]
  Km: 1200 µM
